In patent US10954275:

Assays:
[1] = target: AlexaFluor 647-conjugated human IgG (Jackson Immuno Research) (human); experiment: flow cytometry on yeast-displayed PrG with labelled human IgG at pH 5.6 and pH 8.2 (FIG. 6)
[2] = target: AlexaFluor 647-conjugated human IgG (Jackson Immuno Research) (human); experiment: flow cytometry, IgG titration on yeast-displayed PrG, pH 8.2 against pH 5.6
[3] = target: AlexaFluor 647-conjugated human IgG (Jackson Immuno Research) (human); experiment: flow cytometry on yeast-displayed PrG, ~200 nM IgG, pH 8.2
[4] = target: AlexaFluor 647-conjugated human IgG (Jackson Immuno Research) (human); experiment: flow cytometry, titration of AlexaFluor 647 human IgG on yeast-displayed PrG, pH 8.2
[5] = target: AlexaFluor 647-conjugated human IgG (Jackson Immuno Research) (human); experiment: flow cytometry, titration of AlexaFluor 647 human IgG on yeast-displayed PrG, pH 5.6
[6] = target: AlexaFluor 647-conjugated human IgG (Jackson Immuno Research) (human); experiment: flow cytometry on yeast-displayed PrG, ~200 nM IgG, pH 5.6
[7] = target: AlexaFluor 647-conjugated human IgG (Jackson Immuno Research) (human); experiment: flow cytometry on yeast-displayed PrG with labelled human IgG (FIG. 6), against WT PrG

Row | Binder | fold increase of the pH dependent switch [1] | fold change in binding constant, pH 5.6 to pH 8.2 [2] | Percent IgG bound at IgG concentration of ~200 nM [3] | Kd [4] | Kd [5] | Percent IgG bound at IgG concentration of ~200 nM [6] | fold increase of IgG binding affinity [7]
1 | Protein G EHHE C2 domain (PrG-EHHE; A24E, K28H, V29H, N35E), displayed on the yeast cell surface (designed binder, not shown: large carriers) TTYKLVINGKTLKGETTTEAVDAETAEHHFKQYAEDNGVDGEWTYDDATKTFTVTE | > 2 fold | 40 fold | 10% | 1170 nM | 27 nM | 80% | –
2 | Protein G ERH C2 domain (PrG-ERH; A24E, K28R, V29H), displayed on the yeast cell surface (designed binder, not shown: large carriers) TTYKLVINGKTLKGETTTEAVDAETAERHFKQYANDNGVDGEWTYDDATKTFTVTE | – | – | – | – | – | – | > 4 fold
3 | Protein G EHHD C2 domain (PrG-EHHD; A24E, K28H, V29H, N35D), displayed on the yeast cell surface (designed binder, not shown: large carriers) TTYKLVINGKTLKGETTTEAVDAETAEHHFKQYADDNGVDGEWTYDDATKTFTVTE | – | 20 fold | 7% | 1780 nM | 96 nM | 65% | –
4 | Protein G EHH C2 domain (PrG-EHH; A24E, K28H, V29H), displayed on the yeast cell surface (designed binder, not shown: large carriers) TTYKLVINGKTLKGETTTEAVDAETAEHHFKQYANDNGVDGEWTYDDATKTFTVTE | – | – | – | – | – | – | > 4 fold
